In assay [1] the target is T1, recombinant SARS-CoV-2 spike S2-His (SARS-CoV-2, UniProt P0DTC2 686-1213).
T1 construct: domain: S2
As to the kind of experiment: pull-down on immobilized S2, band quantified.

The target in assay [2] is T2, recombinant SARS-CoV-2 spike RBD (untagged) (SARS-CoV-2, UniProt P0DTC2 319-541).
T2 construct: domain: RBD
As to the kind of experiment: SPR. (In general: SPR reads the build-up and loss of mass on a sensor chip optically.)

Assay [3] has as its target T3, SARS-CoV-2 spike protein (SARS-CoV-2, UniProt P0DTC2 14-1273). Nature of the assay: cell-based or functional assay.
Assay [4] concerns the target T2, recombinant SARS-CoV-2 spike RBD …. As to the kind of experiment: periplasm pull-down on immobilized S1-RBD, SDS-PAGE.
For assay [5], the target named is SARS-CoV-1 spike on pseudovirus (SARS-CoV-1, UniProt P59594 14-1255). As to the kind of experiment: cell-based or functional assay.
Assay [6] has as its target T2, recombinant SARS-CoV-2 spike RBD …. As to the kind of experiment: SPR. The source holds these as a separate data set.
Assay [7] concerns the target T3, SARS-CoV-2 spike protein. Nature of the assay: cell-based or functional assay. This is another data set of the same source.
Assay [8] addresses T4, recombinant SARS-CoV-2 spike S1-His (SARS-CoV-2, UniProt P0DTC2 16-685).
T4 construct: domain: S1
As to the kind of experiment: pull-down on immobilized S1, band quantified.

This note sets out measurements from patent publication US20230331824A1 (ROCKEFELLER UNIVERSITY, published 2023).

Where two headings read alike, the source gives them in different places.

For orientation: Kd means the equilibrium constant for the complex coming apart. As a reminder, the koff is the rate constant with which the complex falls apart. By kon is commonly meant a measure of how fast the partners come together.

B1: S2-45 (VHH)
VHH: QVQLVESGGGLVQAGGSLRLSCAASGLTFSSRAMAWFRQAPGKEREFVARISWSGRNTYYGDSVKGRFTISRDNAKNTVYLQMSSLEPEDTAVYRCAADQQYYNRYYNDEQGYAFWGQGTQVTVS
notes: also called S2 Nanobody # 45
For B1, the binding result in assay [1] is recorded as “binds”.

B2: S1-RBD-29 (VHH)
VHH: QVQLVESGGGLVQDGGSLRLSCAASGLASIVFNMGWFRQAPGKEREFVAGILGSGQSTYYGNSVKGRFTISRDSAKNTVYLQMNSLKPEDTAVYYCAAGGRLDLVNTTGGYEPTYWGQGTQVTVS
Regarding B2, in assay [2], the dissociation constant (Kd) was 2.51 nM, the koff worked out at 0.00135 s⁻¹ and the kon is 536000 M⁻¹ s⁻¹. Moreover, in the assay with SARS-CoV-2 spike protein [3], the “PSV neutralisation IC50” value stood at 9.53 nM.

B3: S2-24 (VHH)
VHH: QVQLVESGGGLVQAGGSLRLSCAASGVTFSSHHMAWYRQTPGKQRELVATLASGGDTNYADSVKGRFTISRDNTKNTIYLQMNSLKPEDTAVYYCNARLWATGFRDYWGQGTQVTVS
notes: also called S2 Nanobody # 24
Consider B3, for which the binding result in assay [1] is given as “binds”.

B4: S2-49 (VHH)
VHH: DVQLVESGGGLVQPGGSLRLSCAVSGLTLPYFTISWFRQAPGKEREWVSSSRITGNTYYADSVKGRFTVSRDNAKSTVYLQMNRLKAEDTATYYCASGRNINYYTNSAEYNYWGRGTQVTVS
notes: also called S2 Nanobody # 49
As for B4, the binding result in assay [1] is on record as “binds”.

B5: S1-RBD-40 (VHH)
VHH: QVQLVESGGGLVQAGGSLRLSCAASGITFSNYGMVWWRQAPGKQREFVASISSGRDTNYADFVKGRFTISRDNAKNTVHLQMNSLKPEDTAVYYCYTVTDRSDYWGQGTQVTVS
On to B5, for which, in assay [2], the Kd was 0.0371 nM, the dissociation rate constant (koff) worked out at 2.77e-05 s⁻¹ and the kon was 747000 M⁻¹ s⁻¹. Further, in the assay with SARS-CoV-2 spike protein [3], the “PSV neutralisation IC50” value stood at 25.6 nM.

B6: S1-RBD-13 (VHH)
VHH: EVQLVESGGGLVQAGGSLRLSCAAPTLTLSSHTIGWFRQAPGKEREGVSYIPMTGLPIYCRDSVKGRFTISTDNAKNTVYLQMDSLKPEDTAVYYCAALLGVRSRMCPESVYTYWGQGTQVTVS
notes: also called S1-RBD Nanobody # 13
For the molecule B6, the binding result in assay [4] is “binds”.

B7: S1-3 (VHH)
VHH: QVQLVESGGGLVQAGGSLRLSCAASGSTFSNTGLGWYRQAPGKQREWVASISPSGSTSYLDSVRGRFIFSRDNAKNIAYLQMNSLKPEDTAVYYCNTLPRSGSWGQGTQVTVS
Consider B7, for which the “SARS-CoV-1 PSV neutralisation IC50” value in assay [5] worked out at 4160 nM.

B8: S2-34 (VHH)
VHH: QVQLVESGGGLVQTGGSLRLSCAASGITFNTYGMGWYRQAPGKQRELVAGIPSIGNINYARFVQGRFTVSRDDGKKAVYLQMNSLKPEDTAIYYCNLQTRFGTNYWGQGTQVTVS
notes: also called S2 Nanobody # 34
For the molecule B8, the binding result in assay [1] was “binds”.

B9: S2-29 (VHH)
VHH: QVQLVESGGGLVQPGGSLRLSCAASGRIFSSNAMGWYRQAPGKEREWVACISSGSSTNYADSVKGRFTISRDNAKNTVYLQMNSLKPEDTAVYYCISKEVGWCGREGPIGSWGQGTQVTVS
notes: also called S2 Nanobody # 29
For B9, the binding result in assay [1] is “binds”.

B10: S1-RBD-23 (VHH)
VHH: QVHLVESGGDLVQPGGSLRLSCVASGSGFENNAITWYRQAPGKERELVSGITSGGSTNYADSVKGRFTISRDNAKNTVYLEMNSLKPEDTAVYLCQAVAWDSRRRSVVAFWGQGTQVTVS
Take B10: in assay [6], the dissociation constant (Kd) is 0.0159 nM, the koff stood at 4.61e-05 s⁻¹ and the kon amounted to 2.89e+06 M⁻¹ s⁻¹. The “PSV neutralisation IC50” value in the assay with SARS-CoV-2 spike protein [7] was 7.31 nM.

B11: S2-23 (VHH)
VHH: QVQLVESGGGLVQPGGSLRLSCAASGRTFSSAMMGWFRQAPGKEREFVASIDWRYQYRYYADSVKGRFTISRDNAKNMVYLQMNSLKPEDTAVYYCACQIERSGIYHYEDSNKYQSWGQGTQVSVS
notes: also called S2 Nanobody # 23
With B11, in assay [1], the binding result is reported as “binds”.

B12: S1-1 (VHH)
VHH: QVQLVESGGGLVQAGGSLRLSCAASGMPFSSYAMGWFRQAPGKEREFVAAVNWNGISTYLADSVKGRFTASRDNAKNTAYLQMNSLKPEDTAVYYCAADSKGWSEWGMDYWGKGTLVTVS
In the case of B12, in assay [5], the “SARS-CoV-1 PSV neutralisation IC50” value is 8.62 nM.

B13: S1-18 (VHH)
VHH: QVRLVESGGGLVQPGGSLRLSCVVSGVSGSAFRFNRLGWYRQPPGKERELVASISSGGSTNYADSVKGRFTISRDNAKSTVSLQMNSLKPEDTAVYYCNIRADFFSSGRTGDWGQGTQVTVS
notes: also called S1 Nanobody # 18
Turning to B13, the binding result in assay [8] is “binds”.

B14: S1-RBD-16 (VHH)
VHH: QVQLVESGGGLVQSGGSLRLSCVASGRGFDRYPMGWFRQAPGKEREFVGGINWNGANTYYADSVKGRFTISRDNTKNTVYLQMNSLKPEDTALYYCAADQHYMGSPPPKEYEYDYWGQGTQVTVS
Take B14: in assay [6], the Kd is 3.73 nM, the off-rate constant (koff) turned out to be 6.25e-05 s⁻¹ and the kon amounted to 16800 M⁻¹ s⁻¹. The “PSV neutralisation IC50” value with SARS-CoV-2 spike protein [7] was 79.2 nM.

B15: S2-37 (VHH)
VHH: QVQVMESGGGLVQAGGSLRLSCAASTGILGGYDMRWYRQTPGNERELVASISSDGSTNYVDFVKGRFTISSDNAKNTVYLQMDSLKSEDTAVYYCNMRSTYYAIDYWGRGTQVTVS
notes: also called S2 Nanobody # 37
Turning to B15, the binding result in assay [1] was “binds”.

B16: S2-20 (VHH)
VHH: QVQLVESGGGLVQPGGSLRLSCAASGFTLTYYTISWFRQAPGKEREWVSSSRISGNTYYTDSVKGRFTISRDNAKSVVYLQMNSLKPEDTATYYCASGRNIPYDTYTNPTKYDYWGRGTQVTVS
notes: also called S2 Nanobody # 20
As for B16, the binding result in assay [1] is recorded as “binds”.

B17: S1-8 (VHH)
VHH: QVQLVESGGGLVQAGGSLRLSCAASGRVLSSYVMGWFRQAPGKEREFVAAIRWNGGSTFYADSVKGRLTISRDNAKNTVYLQMNSLKPEDTAAYYCAASPRTMYDATYYYSRTSYDYWGQGTQVTVS
notes: also called S1 Nanobody # 8
On to B17, for which the binding result in assay [8] was “binds”.

B18: S2-30 (VHH)
VHH: QVQLVESGGGLVQAGGSLRLSCAASGSTFGNYAMGWYRQPPQAPGNQRDLVAFISTTGSTNYADSVKGRFTISRDNAKNTMYLQMNSLKPEDTAVYYCQAIERIVGYVSWGQGTQVTVS
notes: also called S2 Nanobody # 30
Consider B18, for which the binding result in assay [1] is “binds”.

B19: S2-44 (VHH)
VHH: QVQFVESGGGLVQPGGSLRLSCVGSEFTLDNYDIGWFRQAPGKEREWVSCITPRGNIINYADSVKGRFTISRDNAKNTAFLQMNSLKPEDTAVYYCARSSALYDCSQRQTRFFSSWGQGTQVTVS
notes: also called S2 Nanobody # 44
In the case of B19, the binding result in assay [1] was “binds”.

B20: S2-12 (VHH)
VHH: QVQLVESGGGLVQAGGSLRLSCVASEPTFSSRTMGWFRQAPGKERDFVAAMPWWKGALPNYKDSVKGRFTISIDSAKNTMYLQMNSLKPEDTAVYYCAASKTWSPRTEVATEHEFRGQGTQVTVS
notes: also called S2 Nanobody # 12
In the case of B20, the binding result in assay [1] is recorded as “binds”.

B21: S1-13 (VHH)
VHH: EVQLVESGGGLVQPGGSLKLSCAASGFTLDDYTIGWFRQAPGKEREGVSYISSSGSNSYYEDSVKGRFTISRDNAKSTVYLQMNSLKPEDTAVYYCAARRVWQQTIVVRGPVHYEYWGHGTQVTVS
notes: also called S1 Nanobody # 13
As for B21, in assay [8], the binding result is “binds”.
